Molecular target: BiP (binding immunoglobulin protein), ER-resident chaperone (human (endogenous in H1299), UniProt P11021 19-654)
Test: proximity ligation

BiP (binding immunoglobulin protein), ER-resident chaperone, sequence (P11021 19-654): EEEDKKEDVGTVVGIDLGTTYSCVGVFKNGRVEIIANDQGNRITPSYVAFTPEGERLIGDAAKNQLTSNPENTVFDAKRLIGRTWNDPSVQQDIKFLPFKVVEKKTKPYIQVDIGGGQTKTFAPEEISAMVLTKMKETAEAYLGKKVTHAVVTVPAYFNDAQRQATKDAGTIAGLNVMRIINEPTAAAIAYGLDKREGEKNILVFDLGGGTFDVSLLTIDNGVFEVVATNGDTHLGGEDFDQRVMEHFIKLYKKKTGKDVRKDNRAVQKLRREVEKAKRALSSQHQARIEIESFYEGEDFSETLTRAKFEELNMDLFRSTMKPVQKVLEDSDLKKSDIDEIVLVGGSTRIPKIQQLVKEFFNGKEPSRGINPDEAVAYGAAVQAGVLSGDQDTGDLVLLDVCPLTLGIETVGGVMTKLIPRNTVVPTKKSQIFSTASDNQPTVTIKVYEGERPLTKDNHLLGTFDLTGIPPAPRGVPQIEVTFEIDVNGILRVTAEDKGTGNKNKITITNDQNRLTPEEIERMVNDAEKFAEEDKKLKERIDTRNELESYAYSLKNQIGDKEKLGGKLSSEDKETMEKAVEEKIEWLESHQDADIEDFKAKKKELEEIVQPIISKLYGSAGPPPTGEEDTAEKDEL

ratio of PLA BIK/BiP complexes in p53-positive/p53-negative cells, DMSO: 1.3 ratio
ratio of PLA BIK/BiP complexes in p53-positive/p53-negative cells, thapsigargin: 0.4 ratio
B1: BIK, BH3-only pro-apoptotic member of the BCL-2 family (natural protein, human (endogenous in H1299), UniProt Q13323 1-160, looked up)
chain: MSEVRPLSRDILMETLLYEQLLEPPTMEVLGMTDSEEDLDPMEDFDSLECMEGSDALALRLACIGDEMDVSLRAPRLAQLSEVAMHSLGLAFIYDQTEDIRDVLRSFMDGFTTLKENIMRFWRSPNPGSWVSCEQVLLALLLLLALLLPLLSGGLHLLLK

Source: PMC5596431 (Cell Death and Differentiation, 2017)
